Among the data in patent US20080145840A1 are Km values, retold here.

Data set [1] relates to Nc1ncnc2c1ncn2[C@@H]1O[C@H](COP(=O)(O)OP(=O)(O)OP(=O)(O)O)[C@@H](O)[C@H]1O. The data set is described as follows: purified protein, by the assay type.
In data set [2] the test system is C[C@H](N)C(=O)O. The data set is described as follows: purified protein, by the assay type.

In the case of E. coli MurC (Escherichia coli K-12), the Km in data set [1] (other: ITC, pH 8.0) was found to be 61 µM; in data set [1] (other: Phosphate detection), 101 µM; in data set [2] (other: ITC, pH 8.0), 44 µM; in data set [2] (other: Phosphate detection), 56 µM.
